Test results taken from patent US20210002330A1 (ASOCIACI N CENTRO DE INVESTIGACI N COOPERATIVA EN …, published 2021).

T1: fluorescein-labeled Hsp90 peptide (fluorescein label (position not given))
T1 construct: also called target peptide; C-terminal peptide of Hsp90
T1 peptide: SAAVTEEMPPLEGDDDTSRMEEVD


Tests used:
[1] = target: T1, fluorescein-labeled Hsp90 peptide; experiment: fluorescence anisotropy; protein titrated into 50 nM fluorescein-labeled Hsp90 peptide
Experimental: (§1) In addition, the ligand binding activity of the tested proteins was studied by using CC1-CTPR390, CC1-TPR2A, CC1-TPR2A_T332R_D334K proteins and its target peptide. […] Fluorescence intensities were recorded in a Perkin Elmer Fluorimeter equipped with excitation and emission polarizers. Excitation was accomplished with a 5 nm slit width at 492 nm and the emission recorded at 516 nm with slit width of 5 nm. […]

[2] = target: T1, fluorescein-labeled Hsp90 peptide; experiment: fluorescence anisotropy with fluorescein-labeled Hsp90 peptide; protein-stabilised gold nanocluster complex
Experimental: as §1
Finally, fluorescence anisotropy was used to monitor the interaction between the CC1-CTPR390-AuNCs, CC1-TPR2A-AuNCs and CC1-TPR2A_T332R_D334K-AuNCs complexes and a fluorescein-labeled Hsp90 peptide to determine the corresponding Kd value.

Binder	Kd [1]	Kd [2]
CC1-CTPR390 (designed binder, CC1 Cys-clamp module (modules C and C1 fused) joined to the Hsp90 recognition domain CTPR390; Expressed in E. coli and the His tag was cleaved with TEV) AEAWCNLGCAYYKQGDYDEAIEYYQKALELDPRSACAWYCLGNAYYKQGDYDEAIEYYQKALELDPRSAEAWKNLGNAYYKQGDYQKAIEYYQKALELDPNNASAWYNLGNAYYKQGDYQKAIEYYQKALELDPNNAKAWYRRGNAYYKQGDYQKAIEDYQKALELDPNNAKAKQNLGNAKQKQG	110 µM	–
CC1-CTPR390-AuNCs (designed binder, gold nanocluster (AuNC) stabilised on the protein (CC1 4-Cys clamp), also called CC1-CTPR390-AuNCs complex) AEAWCNLGCAYYKQGDYDEAIEYYQKALELDPRSACAWYCLGNAYYKQGDYDEAIEYYQKALELDPRSAEAWKNLGNAYYKQGDYQKAIEYYQKALELDPNNASAWYNLGNAYYKQGDYQKAIEYYQKALELDPNNAKAWYRRGNAYYKQGDYQKAIEDYQKALELDPNNAKAKQNLGNAKQKQG	–	~110 µM
